Here are results for 1 molecule from patent publication US11780902B1, “Receptor/histidine kinase fusion constructs and uses thereof” (priority 2018, dated 2023).

This data set relates to PhoB responsive promoter driving a β-galactosidase reporter gene. The format is cell-based, E. coli.

B1: PhoQTrzPhoR: Mg^2+ responsive PhoQ receptor fused to TrzPhoR at the D position, SEQ ID NO:40 (protein)
chain: MPGRSKWYRRWRPRSLQARQLLAASLSLVAFLALAGYALDVAFADTAEKNLRERLKNYASAYAANIDFVRDGSLYIGGQPPDPRFDVPGGGLYVEVVRPDESWTSMSAEGPNIPHGRMLEPRQEEFIGPLEMTQIDGSLGQLYRYGLGVSYVEREHGGEIPYTIYVMEDARSMGAQLRVFRGAVWFYLGSAGVVLLVLQAFILQWSLRPLRRVINELTKVQRGEIQRMSEQHPRELEPLTDSINAFIESVKQLEGARRNFFANVSHELRTPLTVLQGYLEMMNEQPLEGAVREKALHTMREQTQRMEGLVKQLLTLSKIEAAPTHLLNEKVDVPMMLRVVEREAQTLSQKKQTFTFEIDNGLKVSGNEDQLRSAISNLVYNAVNHTPEGTHITVRWQRVPHGAEFSVEDNGPGIAPEHIPRLTERFYRVDKARSRQTGGSGLGLAIVKHAVNHHESRLNIESTVGKGTRFSFVIPERLIAKNSD
modifications: Fusion protein
For B1, the “Mg^2+ signaling (β-galactosidase activity)” value is reported as “increase in Mg^2+ signaling”.
